Like-named read-outs stand apart in the source and are kept apart here. Ends that are not written are not given here.
Key:
human LGR8 [1] = molecular target: T1, human LGR8 (human, UniProt Q8WXD0 1-754); assay: cell-based or functional assay
human LGR7 [2] = molecular target: T2, human LGR7 (human, UniProt Q9HBX9 1-757); assay: cell-based or functional assay
T2 sequence (looked up): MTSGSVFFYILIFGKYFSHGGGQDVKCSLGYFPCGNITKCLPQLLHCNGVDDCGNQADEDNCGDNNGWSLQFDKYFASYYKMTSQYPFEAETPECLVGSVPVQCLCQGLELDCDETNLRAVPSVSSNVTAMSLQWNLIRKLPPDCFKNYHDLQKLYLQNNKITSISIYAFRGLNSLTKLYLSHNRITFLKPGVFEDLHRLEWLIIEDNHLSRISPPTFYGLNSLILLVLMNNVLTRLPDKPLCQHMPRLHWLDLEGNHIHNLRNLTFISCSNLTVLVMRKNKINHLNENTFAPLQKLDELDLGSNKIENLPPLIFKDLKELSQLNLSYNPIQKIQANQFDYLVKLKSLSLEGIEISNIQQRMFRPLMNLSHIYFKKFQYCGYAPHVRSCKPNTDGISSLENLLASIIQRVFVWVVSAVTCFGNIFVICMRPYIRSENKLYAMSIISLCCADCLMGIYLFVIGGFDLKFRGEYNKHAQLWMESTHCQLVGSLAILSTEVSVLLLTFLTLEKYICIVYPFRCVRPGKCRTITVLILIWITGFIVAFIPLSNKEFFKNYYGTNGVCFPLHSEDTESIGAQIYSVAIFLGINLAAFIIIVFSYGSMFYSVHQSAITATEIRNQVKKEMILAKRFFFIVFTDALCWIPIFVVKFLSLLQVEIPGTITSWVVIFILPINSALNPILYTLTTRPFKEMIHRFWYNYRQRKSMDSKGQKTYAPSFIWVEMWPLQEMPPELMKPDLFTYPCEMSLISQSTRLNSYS

human GPCR142 [3] = molecular target: T3, human GPCR142 (human, UniProt Q8TDU9 1-374); assay: cell-based or functional assay
human GPCR135 [4] = molecular target: T4, human GPCR135 (human, UniProt Q9NSD7 1-469); assay: cell-based or functional assay
T4 sequence: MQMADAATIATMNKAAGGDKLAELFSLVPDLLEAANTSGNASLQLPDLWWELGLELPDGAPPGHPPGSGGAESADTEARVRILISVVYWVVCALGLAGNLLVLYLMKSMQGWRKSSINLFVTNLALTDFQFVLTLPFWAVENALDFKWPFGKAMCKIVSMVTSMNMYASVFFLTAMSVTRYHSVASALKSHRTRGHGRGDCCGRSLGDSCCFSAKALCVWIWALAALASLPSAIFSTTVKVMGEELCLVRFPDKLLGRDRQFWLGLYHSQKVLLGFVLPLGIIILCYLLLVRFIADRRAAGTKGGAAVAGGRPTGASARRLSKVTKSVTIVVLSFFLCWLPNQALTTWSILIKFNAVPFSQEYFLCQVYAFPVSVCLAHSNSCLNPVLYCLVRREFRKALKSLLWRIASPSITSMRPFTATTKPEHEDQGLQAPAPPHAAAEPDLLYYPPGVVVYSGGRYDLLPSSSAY

human GPCR142 [5] = molecular target: T3, human GPCR142; assay: competition with [125I]-relaxin-3 (100 pM), COS-7 membranes with human GPCR142
Description: (§1) Different unlabeled peptides were used in the binding assay as the competitors. […] Data represent mean±SEM (n=3).
(§2) Peptides for competition binding studies were added to the binding mix (final volume: 200 μl) in binding buffer [50 mM Tris-HCl, pH 7.5, 5 mM EDTA, 1% bovine serum albumin, 0.1% protease inhibitor cocktails (Sigma)]. The binding mixtures were incubated at room temperature for 1 hour, filtered through GFC plates (Packard) pre-saturated with 0.3% Polyethylenimine (Sigma), and washed with cold washing buffer (50 mM Tris-HCl, pH 7.5, 5 mM EDTA).

human GPCR135 [6] = molecular target: T4, human GPCR135; assay: competition with [125I]-relaxin-3 (100 pM), COS-7 membranes with human GPCR135
Description: as §1, §2

human LGR7 [7] = molecular target: T2, human LGR7; assay: competition with [125I]-relaxin-3 (100 pM), live COS-7 cells with human LGR7
Description: as §1
(§3) Radioligand binding assays for LGR7 and LGR8 were performed using live COS-7 cells transiently transfected with LGR7 or LGR8 expression plasmids in 15-cm culture dishes using LipofectAmine (Invitrogen). Two days after transfection, the transfected cells were detached from the 15-cm culture dished using phosphate buffered saline (PBS) plus 10 mM EDTA, seeded into 96-well opaque poly-D-lysine coated culture plates and used for radioligand binding assays. […] [¹²⁵I]-labeled tracer was added in binding reactions at a final concentration of 100 pM in binding buffer containing DMEM plus 50 mM HEPES and 1% bovine serum albumin. […] The binding mixtures were incubated at room temperature for 1 hour. The unbound radioligand was removed by aspiration of the binding buffer. The cells were washed with PBS. The bound radioligand was counted in a scintillation counter (TopCount/NTX). The results were analyzed using Prism 3.0 program (Graphpad, San Diego, Calif.).

human LGR8 [8] = molecular target: T1, human LGR8; assay: competition with [125I]-INSL3 (100 pM), live COS-7 cells with human LGR8
Description: as §1, §3

human LGR8 [9] = molecular target: T1, human LGR8; assay: cell-based or functional assay; remark: listed apart in the source
human LGR7 [10] = molecular target: T2, human LGR7; assay: cell-based or functional assay; remark: listed apart in the source
human LGR8 [11] = molecular target: T1, human LGR8; assay: cell-based or functional assay; remark: listed apart in the source
human GPCR142 [12] = molecular target: T3, human GPCR142; assay: cell-based or functional assay; remark: listed apart in the source
human GPCR135 [13] = molecular target: T4, human GPCR135; assay: cell-based or functional assay; remark: listed apart in the source
human LGR7 [14] = molecular target: T2, human LGR7; assay: cell-based or functional assay; remark: listed apart in the source
human LGR8 [15] = molecular target: T1, human LGR8; assay: competition with [125I]-INSL3, live COS-7 cells with human LGR8; this end tied to R3/I3 by Table 1
Description: as §1, §3

human LGR8 [16] = molecular target: T1, human LGR8; assay: competition with [125I]-INSL3 (100 pM) on live COS-7 cells expressing human LGR8; ND denotes no activity was detected
Description: as §1, §3

human LGR7 [17] = molecular target: T2, human LGR7; assay: radioligand competition, live COS-7 cells with human LGR7
Description: as §1, §3

human GPCR142 [18] = molecular target: T3, human GPCR142; assay: cell-based or functional assay; remark: listed apart in the source
human GPCR135 [19] = molecular target: T4, human GPCR135; assay: cell-based or functional assay; remark: listed apart in the source

T3 sequence (Q8TDU9 whole entry L329S): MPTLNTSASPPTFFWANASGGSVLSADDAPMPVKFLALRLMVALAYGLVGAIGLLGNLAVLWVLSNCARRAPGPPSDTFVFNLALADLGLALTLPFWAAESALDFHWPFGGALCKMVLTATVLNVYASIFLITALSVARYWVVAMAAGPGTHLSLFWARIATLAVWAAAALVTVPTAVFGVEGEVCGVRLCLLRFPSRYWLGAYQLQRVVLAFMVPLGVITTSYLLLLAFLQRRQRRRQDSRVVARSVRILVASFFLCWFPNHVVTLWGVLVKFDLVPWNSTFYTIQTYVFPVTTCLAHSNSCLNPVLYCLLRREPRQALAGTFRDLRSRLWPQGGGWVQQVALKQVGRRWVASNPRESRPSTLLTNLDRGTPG
T1 sequence (Q8WXD0 whole entry): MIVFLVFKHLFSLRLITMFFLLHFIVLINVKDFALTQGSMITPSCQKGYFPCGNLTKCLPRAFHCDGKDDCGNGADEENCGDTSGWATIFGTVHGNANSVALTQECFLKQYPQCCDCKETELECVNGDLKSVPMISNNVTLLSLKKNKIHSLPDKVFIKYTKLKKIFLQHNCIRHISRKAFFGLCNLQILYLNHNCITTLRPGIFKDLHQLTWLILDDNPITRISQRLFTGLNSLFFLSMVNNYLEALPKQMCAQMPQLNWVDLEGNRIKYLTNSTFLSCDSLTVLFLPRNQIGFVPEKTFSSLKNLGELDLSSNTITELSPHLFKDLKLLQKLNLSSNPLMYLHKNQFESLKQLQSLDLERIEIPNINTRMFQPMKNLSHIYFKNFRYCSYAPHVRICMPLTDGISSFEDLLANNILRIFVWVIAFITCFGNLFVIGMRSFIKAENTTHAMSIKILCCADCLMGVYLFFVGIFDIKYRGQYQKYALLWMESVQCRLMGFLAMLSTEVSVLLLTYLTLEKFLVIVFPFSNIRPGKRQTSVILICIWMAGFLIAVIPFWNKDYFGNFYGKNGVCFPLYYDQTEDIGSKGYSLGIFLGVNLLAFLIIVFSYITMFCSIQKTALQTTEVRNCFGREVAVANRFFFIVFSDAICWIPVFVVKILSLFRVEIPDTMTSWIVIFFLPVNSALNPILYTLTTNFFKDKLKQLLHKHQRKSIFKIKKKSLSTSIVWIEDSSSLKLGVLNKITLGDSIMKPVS

Molecule: porcine relaxin (from UniProt P01348 25-182) (ligand)
- EC50, induction of β-galactosidase activity (human LGR8 [1]): 1.5 nM
- EC50, stimulation of β-galactosidase activity (human LGR7 [2]): 0.25 nM

Molecule: human relaxin-3 B-chain (from UniProt Q8WXF3 26-52) (peptide)
- EC50, inhibition of forskolin-stimulated β-galactosidase activity (human GPCR142 [3]): 125 nM
- EC50, inhibition of forskolin-stimulated β-galactosidase activity (human GPCR135 [4]): 88 nM

B1: human relaxin-3/relaxin-2 chimeric polypeptide (R3/R2), mature (ligand)
chain: RAAPYGVRLCGREFIRAVIFTCGGSRWQLYSALANKCCHVGCTKRSLARFC
modifications: disulfide (positions not given here); also: two-chain peptide (relaxin-3 B chain, relaxin-2 A chain), disulfide-linked, places not given here
notes: Mature two-chain peptide: human relaxin-3 B-chain disulfide-linked to human relaxin-2 A-chain; FLAG tag removed
- IC50 (human GPCR142 [5]): 1.8 nM
- IC50 (human GPCR135 [6]): 1.2 nM
- IC50 (human LGR7 [7]): 1.5 nM
- IC50 (human LGR8 [8]): 615 nM
- EC50, ligand stimulated β-galactosidase expression (human LGR8 [9]): ~600 nM
- EC50, ligand stimulated β-galactosidase expression (human LGR7 [10]): 1 to 5 nM
- EC50, ligand stimulated β-galactosidase expression (human LGR8 [11]): 575 nM
- EC50, inhibition of forskolin stimulated β-galactosidase expression (human GPCR142 [12]): 1.4 nM
- EC50, inhibition of forskolin stimulated β-galactosidase expression (human GPCR135 [13]): 1.1 nM
- EC50, ligand stimulated β-galactosidase expression (human LGR7 [14]): 1.1 nM

B2: human relaxin-3/relaxin-1 chimeric polypeptide (R3/R1), mature (ligand)
chain: RAAPYGVRLCGREFIRAVIFTCGGSRWPYVALFEKCCLIGCTKRSLAKYC
modifications: disulfide (positions not given here); also: two chains (relaxin-3 B-chain, relaxin-1 A-chain), disulfide-linked, chain break not marked
notes: Mature two-chain peptide: human relaxin-3 B-chain disulfide-linked to human relaxin-1 A-chain; Made in COS-7 cells with furin; the FLAG tag was removed with enterokinase
- IC50 (human GPCR142 [5]): 2.6 nM
- IC50 (human GPCR135 [6]): 2.9 nM
- IC50 (human LGR7 [7]): 5.1 nM
- IC50 (human LGR8 [8]): > 1000 nM
- EC50, ligand stimulated β-galactosidase expression (human LGR7 [10]): 1 to 5 nM
- EC50, ligand stimulated β-galactosidase expression (human LGR8 [11]): > 1000 nM
- EC50, inhibition of forskolin stimulated β-galactosidase expression (human GPCR142 [12]): 2.2 nM
- EC50, inhibition of forskolin stimulated β-galactosidase expression (human GPCR135 [13]): 1.8 nM
- EC50, ligand stimulated β-galactosidase expression (human LGR7 [14]): 4.5 nM

B3: human relaxin-3/INSL3 chimeric polypeptide (R3/I3), mature (ligand)
chain: RAAPYGVRLCGREFIRAVIFTCGGSRWNPARYCCLSGCTQQDLLTLC
modifications: disulfide (positions not given here); also: two chains (relaxin-3 B-chain, INSL3 A-chain), disulfide-linked, chain break not marked
notes: Mature two-chain peptide: human relaxin-3 B-chain disulfide-linked to human INSL3 A-chain; FLAG tag removed
- IC50 (human GPCR142 [5]): 3.5 nM
- IC50 (human GPCR135 [6]): 2.3 nM
- IC50 (human LGR7 [7]): 2.3 nM
- IC50 (human LGR8 [8]): 475 nM
- EC50, ligand stimulated β-galactosidase expression (human LGR8 [9]): ~300 nM
- EC50, ligand stimulated β-galactosidase expression (human LGR8 [11]): 258 nM
- EC50, inhibition of forskolin stimulated β-galactosidase expression (human GPCR142 [12]): 2.9 nM
- EC50, inhibition of forskolin stimulated β-galactosidase expression (human GPCR135 [13]): 2.2 nM
- EC50, ligand stimulated β-galactosidase expression (human LGR7 [14]): 2.5 nM
- IC50 (human LGR8 [15]): 500 nM

B4: human relaxin-3/INSL6 chimeric polypeptide (R3/I6), mature (ligand)
chain: RAAPYGVRLCGREFIRAVIFTCGGSRWGYSEKCCLTGCTKEELSIAC
modifications: disulfide (positions not given here); also: two chains (relaxin-3 B-chain, INSL6 A-chain), disulfide-linked, chain break not marked
notes: Mature two-chain peptide: human relaxin-3 B-chain disulfide-linked to human INSL6 A-chain; FLAG tag removed
- binding result (human LGR8 [16]): no binding
- IC50 (human GPCR142 [5]): 11.3 nM
- IC50 (human GPCR135 [6]): 9.5 nM
- IC50 (human LGR7 [7]): 12.9 nM
- IC50 (human LGR7 [17]): 15 nM
- EC50, inhibition of forskolin stimulated β-galactosidase expression (human GPCR142 [18]): ~10 nM
- EC50, inhibition of forskolin stimulated β-galactosidase expression (human GPCR135 [19]): ~10 nM
- EC50, ligand stimulated β-galactosidase expression (human LGR7 [10]): 10 nM
- EC50, inhibition of forskolin stimulated β-galactosidase expression (human GPCR142 [12]): 11.2 nM
- EC50, inhibition of forskolin stimulated β-galactosidase expression (human GPCR135 [13]): 8.4 nM
- EC50, ligand stimulated β-galactosidase expression (human LGR7 [14]): 13.7 nM

B5: human INSL3 (ligand)
chain: PTPEMREKLCGHHFVRALVRVCGGPRWSTEANPARYCCLSGCTQQDLLTLC
modifications: ends and bridges not checked; also: 125I-labelled form used as tracer, site not given here
- EC50, induction of β-galactosidase activity (human LGR8 [9]): 0.16 nM
